Laboratory results: patent US20230287120A1 (ALLOGENE THERAPEUTICS, published 2023)

T1: Flag tagged recombinant DLL3 (Adipogen) (Homo sapiens (Human), UniProt Q9NYJ7 27-492)
T1 construct: Bought reagent; also called Flag-DLL3
T1 sequence: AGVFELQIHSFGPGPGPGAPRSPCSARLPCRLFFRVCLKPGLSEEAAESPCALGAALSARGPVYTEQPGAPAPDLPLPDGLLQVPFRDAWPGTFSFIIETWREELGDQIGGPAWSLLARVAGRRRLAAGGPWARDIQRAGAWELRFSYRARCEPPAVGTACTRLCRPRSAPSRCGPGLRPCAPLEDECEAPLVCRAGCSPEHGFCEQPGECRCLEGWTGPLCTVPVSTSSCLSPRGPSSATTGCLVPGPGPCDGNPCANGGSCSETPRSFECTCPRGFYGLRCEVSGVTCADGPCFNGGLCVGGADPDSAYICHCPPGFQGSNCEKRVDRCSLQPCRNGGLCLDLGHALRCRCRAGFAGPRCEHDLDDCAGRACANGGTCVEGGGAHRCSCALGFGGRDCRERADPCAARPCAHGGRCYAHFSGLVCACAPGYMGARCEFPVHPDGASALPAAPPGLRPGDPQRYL

B1: 3B11 (other)
CAR: QVQLQQSGPGLVKPSQTLSLTCAISGDSVSSNSVVWNWIRQSPSRGLEWLGRTYYRSKWYDDYAVSVKSRITINPDTSKNQFSLQLNSVTPEDTAVYHCARGGIVGAPDAFDIWGQGTMVTVSSGGGGSGGGGSGGGGSGGGGSQSVLTQPPSASGTPGQRVTISCSGSSSNIGSDPVSWYQQFPGTAPKLLIYTNNQRPSGVPDRFSGSKSGTSASLAISGLQSEDEADYYCAAWDDSLNGHVFGTGTKVTVLTTTPAPRPPTPAPTIASQPLSLRPEACRPAAGGAVHTRGLDFACDIYIWAPLAGTCGVLLLSLVITKRGRKKLLYIFKQPFMRPVQTTQEEDGCSCRFPEEEEGGCELRVKFSRSADAPAYQQGQNQLYNELNLGRREEYDVLDKRRGRDPEMGGKPRRKNPQEGLYNELQKDKMAEAYSEIGMKGERRRGKGHDGLYQGLSTATKDTYDALHMQALPPR
notes: also called anti-DLL3 CAR with 3B11 scFv, on primary T cells
B2: 4E1 (other)
CAR: QVQLQQSGPGLVKPSQTLSLTCAISGDNVSTNSAAWNWIRQSPSRGLEWLGWTYYRSKWYNDYAVSLKSRININPDTSKNQFSLQLNSVTPEDTAVYYCARWVNRDVFDIWGQGTMVTVSSGGGGSGGGGSGGGGSGGGGSQSALTQPASVSGSPGQSITISCTGTSSDVGSYNLVSWYQQHPGKAPKLMIYEGSKRPSGVSNRFSGSKSGNTASLTISGLQAEDEADYYCCSYAGSSTWVFGGGTKLTVLTTTPAPRPPTPAPTIASQPLSLRPEACRPAAGGAVHTRGLDFACDIYIWAPLAGTCGVLLLSLVITKRGRKKLLYIFKQPFMRPVQTTQEEDGCSCRFPEEEEGGCELRVKFSRSADAPAYQQGQNQLYNELNLGRREEYDVLDKRRGRDPEMGGKPRRKNPQEGLYNELQKDKMAEAYSEIGMKGERRRGKGHDGLYQGLSTATKDTYDALHMQALPPR
notes: also called anti-DLL3 CAR with 4E1 scFv, on primary T cells
B3: 5G2 (other)
CAR: QVQLQQSGPGLVKPSQTLSLTCAISGDSVSSNSAVWNWIRQSPSRGLEWLGWTYYRSKYYNDYAVSLKSRITINPDTSKNQFSLQLNSLTPEDTAVYYCTRGGIVGAPDGFDIWGQGTMVTVSSGGGGSGGGGSGGGGSGGGGSQSALTQPPSASGTPGQRVTISCSGSNSNIGSNPINWYQQLPGTAPKLLIYSNNQRPSGVPDRFSGSKSGTSASLAISGLQSEDEADYYCAAWDDSLNGHVFGTGTKVTVLTTTPAPRPPTPAPTIASQPLSLRPEACRPAAGGAVHTRGLDFACDIYIWAPLAGTCGVLLLSLVITKRGRKKLLYIFKQPFMRPVQTTQEEDGCSCRFPEEEEGGCELRVKFSRSADAPAYQQGQNQLYNELNLGRREEYDVLDKRRGRDPEMGGKPRRKNPQEGLYNELQKDKMAEAYSEIGMKGERRRGKGHDGLYQGLSTATKDTYDALHMQALPPR
notes: also called anti-DLL3 CAR with 5G2 scFv, on primary T cells
B4: 2404.6H1 (other)
CAR: QVQLVESGGGVVQPGRSLRLSCAASGFTFSSYGMHWVRQTPGKGLEWVAVISYDGNSNYYADSVKGRFTISRDNSKNTLYLQMNSLRAEDTAVYYCARDGATVTSYYYYGMDVWGQGTTVTVSSGGGGSGGGGSGGGGSGGGGSEIVLTQSPGTLSLSPGERATLSCRASQSVSRTYLAWYHQKPGQAPRLLIYGASSRATGISDRFSGSGSGTDFTLTISRLEPEDFAVYYCQQYGTSPITFGQGTRLEIKTTTPAPRPPTPAPTIASQPLSLRPEACRPAAGGAVHTRGLDFACDIYIWAPLAGTCGVLLLSLVITKRGRKKLLYIFKQPFMRPVQTTQEEDGCSCRFPEEEEGGCELRVKFSRSADAPAYQQGQNQLYNELNLGRREEYDVLDKRRGRDPEMGGKPRRKNPQEGLYNELQKDKMAEAYSEIGMKGERRRGKGHDGLYQGLSTATKDTYDALHMQALPPR
notes: also called anti-DLL3 CAR with 2404.6H1 scFv, on primary T cells
B5: 3B1 (other)
CAR: QVQLQQSGPGLVKPSQTLSLTCAISGDSVSSNTTAWKWSRQSPSKGLEWLGWTYYRSKWYYDYTVSVKSRITINPDTSKNQFSLQLNSVTPEDTAVYYCARWIFHDAFDIWGQGTMVTVSSGGGGSGGGGSGGGGSGGGGSQSALTQPPSASGTPGQRVTISCSGSSSNIGSNTVNWYQQLPGTAPKLLIYTNNQRPSGVPDRFSGSKSGTSASLAISGLQSEDEADYFCSTWDDSLNGPVFGGGTKLTVLTTTPAPRPPTPAPTIASQPLSLRPEACRPAAGGAVHTRGLDFACDIYIWAPLAGTCGVLLLSLVITKRGRKKLLYIFKQPFMRPVQTTQEEDGCSCRFPEEEEGGCELRVKFSRSADAPAYQQGQNQLYNELNLGRREEYDVLDKRRGRDPEMGGKPRRKNPQEGLYNELQKDKMAEAYSEIGMKGERRRGKGHDGLYQGLSTATKDTYDALHMQALPPR
notes: also called anti-DLL3 CAR with 3B1 scFv, on primary T cells
B6: 11E4 (other)
CAR: QVQLQESGPGLVKPSETLSLTCTVSGGSISSYYWSWIRQSPGKGLEWIGYVYYSDITNYNPSLKSRVTISVDTSKNQFSLNLNSVTAADTAFYFCARIGVAGFYFDYWGQGTLVTVSSGGGGSGGGGSGGGGSGGGGSEIVLTQSPDTLSLSPGERATLSCRASQSVSRRYLAWYQQKPGQAPRLLIYGASSRATGIPDRFSGSGSGTDFTLTISRLEPEDFEVYYCQQYGTSPITFGQGTRLEIKTTTPAPRPPTPAPTIASQPLSLRPEACRPAAGGAVHTRGLDFACDIYIWAPLAGTCGVLLLSLVITKRGRKKLLYIFKQPFMRPVQTTQEEDGCSCRFPEEEEGGCELRVKFSRSADAPAYQQGQNQLYNELNLGRREEYDVLDKRRGRDPEMGGKPRRKNPQEGLYNELQKDKMAEAYSEIGMKGERRRGKGHDGLYQGLSTATKDTYDALHMQALPPR
notes: also called anti-DLL3 CAR with 11E4 scFv, on primary T cells
B7: 11A8 (other)
CAR: QVQLQQSGPGLVKPSQTLSLTCAISGDSVSSNSATWNWIRQSPSTGLEWLARTYYRSKWYNDYEVSVKSQITINPDTSKNQFSLQLNSVTPEDTAVYYCARGGIVGAPDAFDIWGQGTMVTVSSGGGGSGGGGSGGGGSGGGGSQSVLTQPPSASGTPGQGVTISCSGSSSNIGSNPVNWYQQLPGTAPKLLIYSNNQRPSGVPDRFSDSKSGTSASLAISGLQSEDEADYYCSAWDDWLNGYVFGTGTKVTVLTTTPAPRPPTPAPTIASQPLSLRPEACRPAAGGAVHTRGLDFACDIYIWAPLAGTCGVLLLSLVITKRGRKKLLYIFKQPFMRPVQTTQEEDGCSCRFPEEEEGGCELRVKFSRSADAPAYQQGQNQLYNELNLGRREEYDVLDKRRGRDPEMGGKPRRKNPQEGLYNELQKDKMAEAYSEIGMKGERRRGKGHDGLYQGLSTATKDTYDALHMQALPPR
notes: also called anti-DLL3 CAR with 11A8 scFv, on primary T cells

Experiments:
[1] = target: T1, Flag tagged recombinant DLL3 (Adipogen); assay: flow cytometry, percent of T cells that recognise recombinant DLL3, Donor 419
Procedure: (§1) To determine the percentage of T cells that were successfully transduced with DLL3 CAR, T cells were first incubated with 1 ug/ml Flag tagged recombinant DLL3 (Adipogen) in PBS+1% BSA for 20 minutes at 4 C.

[2] = target: T1, Flag tagged recombinant DLL3 (Adipogen); assay: flow cytometry, percent of T cells that recognise recombinant DLL3, Donor 503
Procedure: as §1

Binder | Transduction efficiency [1] [%] | Transduction efficiency [2] [%]
B1 | 57.3 | 65.8
B2 | 2.35 | 3.18
B3 | 36.7 | 42.8
B4 | 6.01 | 6.41
B5 | 6.15 | 7.95
B6 | 54.8 | 62.8
B7 | 33.4 | 45.1
